In the supplement of paper PMC9112550, “Optimization of the antimicrobial peptide Bac7 by deep mutational scanning” (BMC Biology, 2022):

Each sequence was assayed on Escherichia coli TOP10 (assay: shrunken log2 fold change of peptide-encoding DNA abundance (4.5 h post-induction vs induction); higher = less antimicrobial activity (less host growth inhibition)). Conditions: time post-induction: 4.5 h; library: site-saturation at positions 5, 18, 19, 20.
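Also: peptides expressed intracellularly from a pBAD plasmid library in pooled LB shake-flask culture, induced with 0.3% L-arabinose, DNA abundance read by NGS, three biological replicates, DESeq2 with apeglm shrinkage.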

For RRIRSRPPRLPRPRPRPLTQPRP, which “shrunken log2 fold change” value is on record?
Its value is 0.243.

With RRIRNRPPRLPRPRPRPKQIPRP as the sequence, how does the “shrunken log2 fold change” value read?
Its value is -0.294.

Which “shrunken log2 fold change” value does the source give for RRIRIRPPRLPRPRPRPPFYPRP here?
Its value is -0.438.

With RRIRWRPPRLPRPRPRPFELPRP as the sequence, how does the “shrunken log2 fold change” value read?
Its value is -0.285.

For RRIRSRPPRLPRPRPRPKIWPRP, which “shrunken log2 fold change” value is on record?
The value was 0.141.

Which “shrunken log2 fold change” value does the source give for RRIRLRPPRLPRPRPRPYHVPRP here?
Its value is -1.29.

For RRIRVRPPRLPRPRPRPMANPRP, which “shrunken log2 fold change” value is on record?
The value was 0.146.

How did the “shrunken log2 fold change” value turn out when RRIRLRPPRLPRPRPRPGIGPRP was run?
The value was 0.417.

RRIRFRPPRLPRPRPRPVQMPRP was tested. Which “shrunken log2 fold change” value did it give?
Its value is 0.189.

Which “shrunken log2 fold change” value does the source give for RRIRKRPPRLPRPRPRPSWIPRP here?
The value was -0.487.

Which “shrunken log2 fold change” value does the source give for RRIRNRPPRLPRPRPRPPYTPRP here?
Its value is -0.876.

Which “shrunken log2 fold change” value does the source give for RRIRARPPRLPRPRPRPAPWPRP here?
Its value is 0.632.

With RRIRRRPPRLPRPRPRPNRAPRP as the sequence, how does the “shrunken log2 fold change” value read?
Its value is 3.1.

How did the “shrunken log2 fold change” value turn out when RRIRVRPPRLPRPRPRPIQPPRP was run?
Its value is 0.0215.

With RRIRIRPPRLPRPRPRPNDVPRP as the sequence, how does the “shrunken log2 fold change” value read?
The value was -0.0102.

How did the “shrunken log2 fold change” value turn out when RRIRPRPPRLPRPRPRPPYQPRP was run?
Its value is 0.249.

How did the “shrunken log2 fold change” value turn out when RRIRWRPPRLPRPRPRPVTQPRP was run?
The value was -0.0775.

With RRIRVRPPRLPRPRPRPGKWPRP as the sequence, how does the “shrunken log2 fold change” value read?
The value was -0.141.

Which “shrunken log2 fold change” value does the source give for RRIRCRPPRLPRPRPRPEPTPRP here?
The value was 0.628.

With RRIRDRPPRLPRPRPRPFWTPRP as the sequence, how does the “shrunken log2 fold change” value read?
The value was -0.116.

Which “shrunken log2 fold change” value does the source give for RRIRSRPPRLPRPRPRPPLMPRP here?
The value was 0.129.

With RRIRERPPRLPRPRPRPLWKPRP as the sequence, how does the “shrunken log2 fold change” value read?
Its value is -0.424.

For RRIRGRPPRLPRPRPRPRMMPRP, which “shrunken log2 fold change” value is on record?
Its value is 0.882.

Which “shrunken log2 fold change” value does the source give for RRIRFRPPRLPRPRPRPKTQPRP here?
The value was 0.397.

How did the “shrunken log2 fold change” value turn out when RRIRFRPPRLPRPRPRPEWIPRP was run?
Its value is -0.0219.

For RRIRCRPPRLPRPRPRPDQMPRP, which “shrunken log2 fold change” value is on record?
The value was 0.101.

For RRIRERPPRLPRPRPRPEMMPRP, which “shrunken log2 fold change” value is on record?
Its value is -0.269.

RRIRQRPPRLPRPRPRPDYRPRP was tested. Which “shrunken log2 fold change” value did it give?
The value was -0.00448.

With RRIRGRPPRLPRPRPRPENAPRP as the sequence, how does the “shrunken log2 fold change” value read?
The value was 1.03.

For RRIRQRPPRLPRPRPRPIDGPRP, which “shrunken log2 fold change” value is on record?
The value was 0.0784.

Which “shrunken log2 fold change” value does the source give for RRIRDRPPRLPRPRPRPCCMPRP here?
The value was 0.125.

How did the “shrunken log2 fold change” value turn out when RRIRFRPPRLPRPRPRPVMKPRP was run?
The value was -0.189.

With RRIRDRPPRLPRPRPRPDFPPRP as the sequence, how does the “shrunken log2 fold change” value read?
The value was 0.0974.

With RRIRGRPPRLPRPRPRPNKCPRP as the sequence, how does the “shrunken log2 fold change” value read?
The value was 0.139.

With RRIRWRPPRLPRPRPRPYKLPRP as the sequence, how does the “shrunken log2 fold change” value read?
The value was -0.327.

RRIRDRPPRLPRPRPRPLARPRP was tested. Which “shrunken log2 fold change” value did it give?
The value was 0.479.

RRIRFRPPRLPRPRPRPECTPRP was tested. Which “shrunken log2 fold change” value did it give?
Its value is 0.0551.

With RRIRTRPPRLPRPRPRPPNMPRP as the sequence, how does the “shrunken log2 fold change” value read?
Its value is -0.203.

Which “shrunken log2 fold change” value does the source give for RRIRERPPRLPRPRPRPKLNPRP here?
The value was -0.254.

For RRIRQRPPRLPRPRPRPYNNPRP, which “shrunken log2 fold change” value is on record?
Its value is -1.04.

RRIRHRPPRLPRPRPRPTNFPRP was tested. Which “shrunken log2 fold change” value did it give?
The value was -0.398.

How did the “shrunken log2 fold change” value turn out when RRIRWRPPRLPRPRPRPIQSPRP was run?
The value was 0.245.

How did the “shrunken log2 fold change” value turn out when RRIRGRPPRLPRPRPRPSKVPRP was run?
Its value is -0.116.

How did the “shrunken log2 fold change” value turn out when RRIRYRPPRLPRPRPRPVGWPRP was run?
The value was 0.344.

Which “shrunken log2 fold change” value does the source give for RRIRNRPPRLPRPRPRPMLAPRP here?
The value was -0.053.

With RRIRPRPPRLPRPRPRPGVQPRP as the sequence, how does the “shrunken log2 fold change” value read?
The value was 0.336.

Which “shrunken log2 fold change” value does the source give for RRIRGRPPRLPRPRPRPCNMPRP here?
The value was -0.0796.

RRIRDRPPRLPRPRPRPDNVPRP was tested. Which “shrunken log2 fold change” value did it give?
Its value is -0.273.

With RRIRGRPPRLPRPRPRPPIGPRP as the sequence, how does the “shrunken log2 fold change” value read?
The value was 0.735.

How did the “shrunken log2 fold change” value turn out when RRIRTRPPRLPRPRPRPFGKPRP was run?
The value was -0.00963.

RRIRVRPPRLPRPRPRPCDNPRP was tested. Which “shrunken log2 fold change” value did it give?
The value was -0.418.

For RRIRSRPPRLPRPRPRPVFVPRP, which “shrunken log2 fold change” value is on record?
Its value is -0.00419.

Which “shrunken log2 fold change” value does the source give for RRIRERPPRLPRPRPRPWCRPRP here?
Its value is -0.126.

RRIRMRPPRLPRPRPRPSLIPRP was tested. Which “shrunken log2 fold change” value did it give?
The value was -0.245.

How did the “shrunken log2 fold change” value turn out when RRIRSRPPRLPRPRPRPRGSPRP was run?
Its value is 0.378.

RRIRMRPPRLPRPRPRPKQVPRP was tested. Which “shrunken log2 fold change” value did it give?
Its value is 0.0554.

For RRIRPRPPRLPRPRPRPIAPPRP, which “shrunken log2 fold change” value is on record?
The value was 0.265.

For RRIRNRPPRLPRPRPRPSAQPRP, which “shrunken log2 fold change” value is on record?
Its value is 0.147.

How did the “shrunken log2 fold change” value turn out when RRIRWRPPRLPRPRPRPQGHPRP was run?
Its value is 0.0837.

RRIRCRPPRLPRPRPRPRWWPRP was tested. Which “shrunken log2 fold change” value did it give?
The value was 0.718.

RRIRRRPPRLPRPRPRPQFDPRP was tested. Which “shrunken log2 fold change” value did it give?
The value was 0.107.

For RRIRSRPPRLPRPRPRPNSMPRP, which “shrunken log2 fold change” value is on record?
The value was -0.215.

How did the “shrunken log2 fold change” value turn out when RRIRARPPRLPRPRPRPCPLPRP was run?
Its value is -0.132.

How did the “shrunken log2 fold change” value turn out when RRIRQRPPRLPRPRPRPIGPPRP was run?
Its value is 0.229.

Which “shrunken log2 fold change” value does the source give for RRIRQRPPRLPRPRPRPWYMPRP here?
Its value is -0.237.

With RRIRHRPPRLPRPRPRPKYCPRP as the sequence, how does the “shrunken log2 fold change” value read?
Its value is -0.000924.

RRIRWRPPRLPRPRPRPVYYPRP was tested. Which “shrunken log2 fold change” value did it give?
Its value is -0.412.

Which “shrunken log2 fold change” value does the source give for RRIRMRPPRLPRPRPRPMSIPRP here?
The value was -0.0109.

With RRIRERPPRLPRPRPRPLKLPRP as the sequence, how does the “shrunken log2 fold change” value read?
The value was -0.118.

For RRIRRRPPRLPRPRPRPPDPPRP, which “shrunken log2 fold change” value is on record?
Its value is 0.707.

RRIRGRPPRLPRPRPRPVIIPRP was tested. Which “shrunken log2 fold change” value did it give?
The value was 2.29.

Which “shrunken log2 fold change” value does the source give for RRIRDRPPRLPRPRPRPFETPRP here?
Its value is -0.0134.

Which “shrunken log2 fold change” value does the source give for RRIRPRPPRLPRPRPRPDVSPRP here?
The value was 0.0525.

With RRIRERPPRLPRPRPRPPYWPRP as the sequence, how does the “shrunken log2 fold change” value read?
Its value is 0.0536.

Which “shrunken log2 fold change” value does the source give for RRIRTRPPRLPRPRPRPRLTPRP here?
Its value is -0.00933.
